From paper PMC8026907 come the findings set out here.

What all share (conditions): protein: recombinant; tags: His-tag (pET-3a); chain copies: 2; blunt
Series [1] addresses T1, CRP-MTB (cAMP receptor protein, wild type) (Mycobacterium tuberculosis, UniProt P9WMH3 1-224).
T1 sequence: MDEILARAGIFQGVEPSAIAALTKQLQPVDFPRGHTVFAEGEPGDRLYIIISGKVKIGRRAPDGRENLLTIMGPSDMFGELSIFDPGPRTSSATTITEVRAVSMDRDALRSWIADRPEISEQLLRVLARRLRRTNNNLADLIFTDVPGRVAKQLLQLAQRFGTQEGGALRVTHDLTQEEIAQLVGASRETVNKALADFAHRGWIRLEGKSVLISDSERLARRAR
Briefly: fluorescence anisotropy; no cAMP (apo).

The target of series [2] is T1, CRP-MTB (cAMP receptor protein, wild …). In words: fluorescence anisotropy; 1 mM cAMP. (Polarisation of emitted light reports the rotation of a fluorescent probe.)
Series [3] shares this target. Briefly: fluorescence anisotropy; 0.1 mM cAMP.

B1: SerC promoter 32-bp, fluorescein (dsDNA)
DNA 1: GCGCGTAGTGTGAACAAGCTCACATGCAAGCC
DNA 2: GGCTTGCATGTGAGCTTGTTCACACTACGCGC
As to B1, the Ka in series [1] is 2.3 ± 0.9 1e8 M-1; in series [2] it was 4.2 ± 1.7 1e8 M-1; in series [3], 4.5 ± 1.2 1e8 M-1.

B2: SerC promoter 20-bp, fluorescein (dsDNA)
DNA 1: AGTGTGAACAAGCTCACATG
DNA 2: CATGTGAGCTTGTTCACACT
For the molecule B2, the Ka was 0.12 ± 0.02 1e8 M-1 in series [1] and 0.5 ± 0.1 1e8 M-1 in series [2].
